Experimental data as given in the supplement of paper PMC12764529.
± gives the half width of the 95% confidence interval.

Experiments:
[1] = folding stability dG unfold from trypsin proteolysis; higher = more stable
In short: (§1)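 Bayesian fitting of sequencing counts gave K50 for each design. Unfolding free energy followed by setting this against a sequence-predicted unfolded-state K50 and a shared folded-state K50, either per protease or with trypsin and chymotrypsin combined. The designs, under 80 residues and lacking cysteine, were digested in a PA-tagged cDNA display format at 11 threefold-diluted protease concentrations and without protease, and only those with AlphaFold2 dimer inter-PAE above 15 were kept.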

[2] = folding stability dG unfold (combined trypsin and chymotrypsin); higher = more stable
In short: as §1

[3] = folding stability dG unfold from chymotrypsin proteolysis; higher = more stable
In short: as §1

Sequence	folding stability dG unfold [1] [kcal/mol]	folding stability dG unfold [2] [kcal/mol]	folding stability dG unfold [3] [kcal/mol]
SIKIEPHPDGFFMLRFPDNGHKIMIRVDPEKGKVKIMFETPGQPVEQEIDPDEGTITIEFPNNKIEIPIKSA [r9_541_TrROS]	2.42 ± 0.1	1.56 ± 0.23	1.14 ± 0.24
SAGGSAGGSKKKKKKVKKKKVYRVKIKTKDGKLIEIEVSVEDLEKIKKAAEKAGFEIVEIEPVSAGGSAGGS [r12_891_TrROS_Hall]	2.39 ± 0.076	3.42 ± 0.2	3.86 ± 0.18
SAGGTVTIFIPGMSLDQIKKFIKFFRDNPDRPVTIHMPNGYMIEIDPKGKIDNIKVRRMPPMPEDDQSAGGS [r16_248_TrROS]	1.52 ± 0.036	2.53 ± 0.12	2.93 ± 0.046
SAKIVIIPLGDKAIIIITDENGKTKTIELPGISKIEIKGDHLKIYDPKTGKLIIPPNWKGKDIIIIPGKSAG [r14_83_TrMRF]	2.25 ± 0.22	2.9 ± 0.34	3.32 ± 0.59
SAGGGTYIEIKVTYSDGTTETFTVPAKPEDIETVVKEIEDKLKELGGTITSIKIENGKITIEATIPDSAGGS [r16_662_TrMRF]	2.41 ± 0.19	3.06 ± 0.18	3.3 ± 0.087
SAGGSAGGSAGPIVLIKIKNKNGKEIEIEMSLEELKKKLPKELKNMKVEIVEVKEVKVEKSAGGSAGGSAGG [r11_353_TrROS_Hall]	0.351 ± 0.088	0.56 ± 0.27	0.315 ± 0.14
SALSASELAKRVRDRIKELSNEEGYNVDIKVDVQPNEDGSVTVHIQFDSPWMIKRIKEKLPPGVNVEIMSAG [r14_491_TrROS]	3.15 ± 0.073	2.75 ± 0.05	2.421 ± 0.021
SAGGSSPPGVKVEVTVEVTYIPSKGGYKLTFYRPGGEKVDTKELEKDKLEEAKEELKAKGFDVVKIKKSAGG [r13_765_JUSTAS]	-0.402 ± 0.41	0.347 ± 0.21	0.882 ± 0.18
SAGGSAGGMKVEVVFLVPGEVFSKFTPPLSEDDPVLLVLVFDVPAPPPVPRYVYDPETGEWRPESAGGSAGG [r6_211_TrMRF]	2.39 ± 0.047	3.22 ± 0.11	3.72 ± 0.099
SAGGSAMPIELDLVIEIPIDAHPDQTVEDLVEEIAERIRRLLPPDTVVELRVHLHPELGVALADVSSAGGSA [r15_739_TrMRF]	1.56 ± 0.039	0.988 ± 0.081	0.117 ± 0.087
SAGGSAGGSIKIPPGQMIHIRYEHGGKKREYSFTIDPNDGKIDEIIPPDNLPGYKIEEIHIVPSAGGSAGGS [r12_6_TrROS]	-0.431 ± 0.33	0.307 ± 0.34	0.729 ± 0.3
SGSFKLLKVEEHPDNPSITAVLTFPDGSTATLRFRPDGSWTGYVESTGKPFTAVSGENELKLFVPEELTLSA [r9_233_TrMRF]	0.67 ± 0.059	0.523 ± 0.095	0.319 ± 0.14
SAGGSAGGMKIEPIAEDEDYIVVRVEPDLPELLEELGLEVVGVEEEGDYVIVVVKVPPEVREKFSAGGSAGG [r6_108_TrMRF]	0.649 ± 0.022	0.336 ± 0.11	-0.0352 ± 0.11
SAAFKGKNGKTIKITAKVKPNELTPEQVKELALAAVKNIFPENEKVEVKVKVEKLPNGEVLVYVEVKAESAG [r14_389_TrMRF]	1.22 ± 0.038	0.905 ± 0.085	0.342 ± 0.17
SAGKPLTPDEAKELAEELVDAFAEEFARRHGMPPDDMKVIEVEETPDGYIQVTFRMPNMPMKFEIPVKDSAG [r5_565_TrROS]	0.435 ± 0.057	0.366 ± 0.1	0.277 ± 0.11
SAGGGPAKEVPILALIKARNPETGEEYELPIVITANSKEDVEAAKGLVDTLAEALRELGFTEVEVEIGSAGG [r13_360_TrMRF]	2.97 ± 0.069	2.83 ± 0.058	2.72 ± 0.042
SAGGSGMTETIKLSDPKNGLSVTVTVTFDPATGSKSVTITVESSEEAKEKVKALLEEKGLPVTVTSSAGGSA [r2_30_JUSTAS]	0.716 ± 0.063	1.27 ± 0.081	1.55 ± 0.082
SAGGSAGGSDYKIEIEVEPMDPEDGYYQVELEIYDPNNGEPKEKIPVHMDSPEDAKDAIKELISAGGSAGGS [r12_26_TrROS]	0.499 ± 0.09	0.456 ± 0.084	0.362 ± 0.024
SAGGSAGGSTVEEELLEKAAAAHPPGTTLTVDVVIVDPNNPVPIGTRTVTITVNADGSYTVVDSAGGSAGGS [r20_151_JUSTAS]	2.18 ± 0.07	2.46 ± 0.09	2.65 ± 0.054
GMMPEVKEYEVVVEVSLSDPSFASMTPEELAERAVAEVAAKPDFDPVEVEILSVKELPDGTYVVKVRITVRS [r1_484_JUSTAS]	4.48 ± 0.2	3.91 ± 0.14	3.15 ± 0.12
SAGGSMTAEELAEELAARHPDATVERSPSGVVTFRLPATGLTVTVSSGAGELRITVEDPTVPRRTLESAGGS [r16_478_JUSTAS]	0.0944 ± 0.27	-0.312 ± 0.3	-0.527 ± 0.5

Sequence	folding stability dG unfold [1] [kcal/mol]	folding stability dG unfold [2] [kcal/mol]	folding stability dG unfold [3] [kcal/mol]
SAGGSAGGSMIFFPNITKEEFEEIFRKKGYKVKRYPSTNVIEVTGKDGKPIKAVVIPVSPEEFSAGGSAGGS [r12_211_TrMRF]	0.677 ± 0.058	0.668 ± 0.088	0.618 ± 0.13
SAFKIERDPGNGQRKIKIEIPIIFPMGPEMRNMFKNMIKQWLAKHNPNVDIEIDIIPVKSPEQALEQIGSAG [r14_406_TrROS]	1.48 ± 0.15	1.98 ± 0.47	2.61 ± 0.3
SAGGAFPPGEKVEVRIEVVELPGEGTYLLRAYLPGGKLLWERPFPEGELEAFAEEFRSLGFDTVEVTPSAGG [r13_765_TrMRF]	2.512 ± 0.021	2.69 ± 0.035	2.736 ± 0.0075
SELEDMTPEQLRERIRELLEELREERPGEEVEITIEELLERLPGMSREQLAEILGLTEEELENRTITIRASA [r9_525_TrROS_Hall]	2.08 ± 0.11	2.35 ± 0.14	2.47 ± 0.085
SAGGSAPKPDWIVRIEITVKFPGKTKKIDIVIDSPEALNQIINELKDEGFKDVEPKIEWVPLEEMKSAGGSA [r15_1015_TrROS]	0.296 ± 0.089	0.915 ± 0.26	1.21 ± 0.17
SAGGSAGGSGPKPRLIKLTFLLEPGKVEEFAQALRDAGFEIVSVEVEPLPDGGERATVTVRIDSAGGSAGGS [r12_905_TrMRF]	2.81 ± 0.093	3.56 ± 0.062	3.82 ± 0.07
SAGGSAGGSAGMTLTLEFTDPEVAIPLAEKLAEELGLELVEIEEREEGERPVYLVTLKVPSAGGSAGGSAGG [r11_232_JUSTAS]	1.63 ± 0.056	1.61 ± 0.043	1.52 ± 0.021
SAGGSAESIPVDELVELAKKLGLDVTVTPLPETGLVRVEITFTTPDGSKVPATVLVHPDGRTTVFPSAGGSA [r15_1051_TrMRF]	1.82 ± 0.038	2.08 ± 0.032	2.208 ± 0.018
SAGGSAKLNITKILSVEFSEDGTIRIKVENENGELYELEIKVKVIPPPEKPEIDPKYLTPEDLEKYSAGGSA [r15_41_TrMRF]	1.43 ± 0.029	1.6 ± 0.12	1.61 ± 0.11
SAGGSEEIKKLLASGQLDEVIALLKKKGYENVTVTPDPRKPVVTINVTKTDPKTGKKKTTTITIPTGLSAGG [r13_359_JUSTAS]	3.62 ± 0.1	3.92 ± 0.086	4.03 ± 0.052
SAGGSAGGSAGGMKVIKLPGLTVEIEPGYSPSEPVKITITDPKTGKVTEYEIKIPPEELPSAGGSAGGSAGG [r7_834_JUSTAS]	0.915 ± 0.052	1.13 ± 0.042	1.26 ± 0.021
SAGGSAGGSAGKYYIIKYPGKVEIIPESEVEKIIEANPNVEIEEFESKEEALKALEKALSSAGGSAGGSAGG [r11_60_TrMRF]	3.95 ± 0.21	4.22 ± 0.09	4.24 ± 0.083
SAGGKEIYVVRIEVYYPSNGKVEEKEYVIEATPEEAEELAKKIAEAFKEEAGEEVEVLRVEIKVYDLSAGGS [r16_140_TrMRF]	3.82 ± 0.22	4.65 ± 0.12	4.68 ± 0.072
SAGGSAGGSAGGSIEIIVRTPEMAKQMAKRIQKILADQGNPPPLKIEIHVIPPDDLPPWSAGGSAGGSAGGS [r4_472_TrROS]	-0.0989 ± 0.26	0.388 ± 0.15	0.571 ± 0.092
SAGGSAGGPVITFPWNDIPELLERARENGDPEYYIRVSPDDPGNFTIMPPEEAEENGMPVIPLDSAGGSAGG [r6_710_TrROS]	-0.976 ± 0.45	-0.668 ± 0.33	-0.656 ± 0.46
SAGGSAGGSVIPYFDENAVALLVKGPGDYYRIIFKPNDGYLVLLLPKEVIKSKPIPIGELLKKSAGGSAGGS [r20_90_TrMRF]	0.672 ± 0.11	0.948 ± 0.43	1.33 ± 0.38
SAWYIIKIEIYNPGQNEPIASHTFMVPEEDLDAFKEKIADQFGMNPGWQIKVEIQPIPPVRDKDGEWKWSAG [r14_297_TrROS]	1.54 ± 0.036	1.91 ± 0.086	2.13 ± 0.077
SAGGMVLVSTPSNRGASSEILKEAAEAISAGDPDKAAELAREYFQKNFPPDEPIKIEIFVDPPVEPESAGGS [r8_48_TrMRF]	0.476 ± 0.011	0.662 ± 0.044	0.744 ± 0.063
SAGGSAGGSMTKTITTKTEEEAESEARRLLKEEGVPEGVEPTPITLESVDPEKGLYTFTVELESAGGSAGGS [r12_999_JUSTAS]	0.2 ± 0.062	0.379 ± 0.076	0.395 ± 0.099
SAGDKKTIELWFMFKTPEEARHEADSIARRLAEEGLTIKVELKDIEPMPDPDGEKYYMFEFKVTIQLPNSAG [r5_158_TrROS]	2.55 ± 0.062	3.06 ± 0.14	3.28 ± 0.12
SAGGSAGGGTVLAEEEEPETGLVRRLVRLPDGTLVESVSLVDPETGEVLSEEVLRETPLPPPGLSAGGSAGG [r6_928_JUSTAS]	0.898 ± 0.08	1.29 ± 0.12	1.41 ± 0.054
